Among the data in patent US20260139007A1 (SANFORD BURNHAM PREBYS MEDICAL DISCOVERY INSTITUTE, published 2026) are IC50 values, retold here.

Numbered stars: 1 amine (or outer) side, 2 acyl side, 3 side chain; on linkers, the order of the positions; unused ones are H or OH. Bridge positions count the residues as written; N and C are the ends. Square brackets hold non-standard residues; d marks the D form. Side chains are listed from the residue outwards. Ends that are not written are not given here. * marks the point of attachment. γGlu = O=C(O)[C@H](CCC(=O)[*:2])N[*:1]; βAsp = O=C(O)[C@H](CC(=O)[*:2])N[*:1]; Palmitoyl = CCCCCCCCCCCCCCCC(=O)*; Lauroyl = CCCCCCCCCCCC(=O)*; βAla = NCCC(=O)O

To fix the notation:
B1: compound 19 (peptide)
peptide: XPYCVYRXSWSCGGKG
modifications: β-alanine at 1 and 8; palmitoyl-γGlu-γGlu on the side chain of the Lys of the C-terminal GGKG; C-terminal amide; disulfide bond Cys4-Cys12 (cyclic)
notes: also called peptide 19
B2: compound 20 (peptide)
peptide: [βAla]PYCVYR[βAla]SWSCGGGSK([γGlu-γGlu-Palmitoyl])G-NH2
modifications: disulfide 4-12; N-terminus assumed
SMILES: CCCCCCCCCCCCCCCC(=O)N[C@@H](CCC(=O)N[C@@H](CCC(=O)NCCCC[C@H](NC(=O)[C@H](CO)NC(=O)CNC(=O)CNC(=O)CNC(=O)[C@@H]1CSSC[C@H](NC(=O)[C@H](Cc2ccc(O)cc2)NC(=O)[C@@H]2CCCN2C(=O)CCN)C(=O)N[C@@H](C(C)C)C(=O)N[C@@H](Cc2ccc(O)cc2)C(=O)N[C@@H](CCCNC(=N)N)C(=O)NCCC(=O)N[C@@H](CO)C(=O)N[C@@H](Cc2c[nH]c3ccccc23)C(=O)N[C@@H](CO)C(=O)N1)C(=O)NCC(N)=O)C(=O)O)C(=O)O
notes: also called peptide 20
B3: compound 11 (peptide)
peptide: [βAla]PYCVYK([γGlu-Lauroyl])[βAla]SWSC-NH2
modifications: disulfide 4-12; N-terminus assumed
SMILES: CCCCCCCCCCCC(=O)N[C@@H](CCC(=O)NCCCC[C@@H]1NC(=O)[C@H](Cc2ccc(O)cc2)NC(=O)[C@H](C(C)C)NC(=O)[C@@H](NC(=O)[C@H](Cc2ccc(O)cc2)NC(=O)[C@@H]2CCCN2C(=O)CCN)CSSC[C@@H](C(N)=O)NC(=O)[C@H](CO)NC(=O)[C@H](Cc2c[nH]c3ccccc23)NC(=O)[C@H](CO)NC(=O)CCNC1=O)C(=O)O
notes: also called peptide 11; βAPYCVYK(lauroyl-γE)βASWSC-NH2
B4: APY-d3-PEG2 (peptide)
peptide: XPYCVYRXSWSCXXK
modifications: β-alanine at 1 and 8; disulfide bond Cys4-Cys12 (cyclic); 30 kDa methoxy-PEG joined through linker2 at the C-terminus (amide formation with 30 kDa methoxy-PEG-(CH2)5COO-NHS on precursor 1, βAPYCVYRβASWSCβAβAK-NH2, SEQ ID NO: 36)
notes: also called βAPYCVYRβASWSC-linker2-PEG
B5: APY-d3-PEG3 (peptide)
peptide: XPYCVYRXSWSCXK
modifications: β-alanine at 1 and 8; disulfide bond Cys4-Cys12 (cyclic); 30 kDa methoxy-PEG joined at the C-terminus through an oxime linkage (APY-d3-βAla-glyoxyl with methoxy-PEG-CONH(CH2)2-ONH2)
notes: also called βAPYCVYRβASWSC-linker3-PEG
B6: compound 17 (peptide)
peptide: [βAla]PYCVYK([γGlu-Palmitoyl])[βAla]SWSC-NH2
modifications: disulfide 4-12; N-terminus assumed
SMILES: CCCCCCCCCCCCCCCC(=O)N[C@@H](CCC(=O)NCCCC[C@@H]1NC(=O)[C@H](Cc2ccc(O)cc2)NC(=O)[C@H](C(C)C)NC(=O)[C@@H](NC(=O)[C@H](Cc2ccc(O)cc2)NC(=O)[C@@H]2CCCN2C(=O)CCN)CSSC[C@@H](C(N)=O)NC(=O)[C@H](CO)NC(=O)[C@H](Cc2c[nH]c3ccccc23)NC(=O)[C@H](CO)NC(=O)CCNC1=O)C(=O)O
notes: also called peptide 17; βAPYCVYK(palmitoyl-γE)βASWSC-NH2
B7: APY-d3-PEG1 (peptide)
peptide: XPYCVYRXSWSCXXK
modifications: β-alanine at 1 and 8; disulfide bond Cys4-Cys12 (cyclic); 30 kDa methoxy-PEG joined through linker1 at the C-terminus (amide formation with 30 kDa methoxy-PEG succinimidyl carboxymethyl ester on precursor 1, βAPYCVYRβASWSCβAβAK-NH2, SEQ ID NO: 36)
notes: also called βAPYCVYRβASWSC-linker1-PEG
B8: compound 10 (peptide)
peptide: [βAla]PYCVYK([βAsp-Lauroyl])[βAla]SWSC-NH2
modifications: disulfide 4-12; N-terminus assumed
SMILES: CCCCCCCCCCCC(=O)N[C@@H](CC(=O)NCCCC[C@@H]1NC(=O)[C@H](Cc2ccc(O)cc2)NC(=O)[C@H](C(C)C)NC(=O)[C@@H](NC(=O)[C@H](Cc2ccc(O)cc2)NC(=O)[C@@H]2CCCN2C(=O)CCN)CSSC[C@@H](C(N)=O)NC(=O)[C@H](CO)NC(=O)[C@H](Cc2c[nH]c3ccccc23)NC(=O)[C@H](CO)NC(=O)CCNC1=O)C(=O)O
notes: also called peptide 10; βAPYCVYK(lauroyl-βD)βASWSC-NH2

T1 sequence (P54764 20-547): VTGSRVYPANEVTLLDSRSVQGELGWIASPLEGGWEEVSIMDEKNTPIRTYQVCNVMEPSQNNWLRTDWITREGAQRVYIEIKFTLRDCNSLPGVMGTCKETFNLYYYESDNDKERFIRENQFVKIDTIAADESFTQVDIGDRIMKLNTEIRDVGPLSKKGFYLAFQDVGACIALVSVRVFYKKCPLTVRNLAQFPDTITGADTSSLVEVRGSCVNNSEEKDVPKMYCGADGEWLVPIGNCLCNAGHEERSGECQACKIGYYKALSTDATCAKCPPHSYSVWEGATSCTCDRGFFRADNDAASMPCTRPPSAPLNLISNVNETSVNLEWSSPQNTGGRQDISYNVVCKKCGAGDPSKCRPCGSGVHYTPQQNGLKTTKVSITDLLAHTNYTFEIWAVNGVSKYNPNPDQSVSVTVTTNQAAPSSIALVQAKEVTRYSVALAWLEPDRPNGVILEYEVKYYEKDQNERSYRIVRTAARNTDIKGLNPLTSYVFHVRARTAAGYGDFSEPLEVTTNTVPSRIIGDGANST

This assay concerns the target T1, EphA4 Fc (human EphA4 Fc, #CJ75, Novoprotein, or mouse EphA4 Fc, #641-A4, R&D Systems/BioTechne) (human or mouse, UniProt P54764 20-547).
T1 construct: extracellular domain; bought reagents; also called EphA4 extracellular domain fused to the Fc portion of an antibody; not shown: Fc portion of an antibody
The assay can be described thus: competition ELISA, inhibition of ephrin-A5 AP binding to immobilized EphA4 Fc. Background: An ELISA detects its analyte on a solid surface through an enzyme-linked reagent.
The term IC50 denotes the concentration that inhibits the measured activity by half. Low readings indicate greater potency, high ones weaker potency. On to B1, for which the IC50 worked out at 160 nM.

Molecule B2 had an IC50 of 190 nM.

The molecule B3 returned an IC50 of 84 nM.

With B4, the IC50 worked out at 83 nM.

Regarding B5, the IC50 turned out to be 15 nM.

B6 gave an IC50 of 2300 nM.

B7 showed an IC50 of 180 nM.

On to B8, for which the IC50 amounted to 110 nM.
